We go through one substance from PMC10945830.

In general, stoichiometry N refers to the number of molecules, sites or subunits per partner or assembly.

The target of this test is Anthopleura YFP (AnthoYFP) from Neon Anthopleura sola (Anthopleura sola (endogenous in tentacles)). In words: SEC-MALS; isolated AnthoYFP pigment; self-association, tetramer; conditions of the SEC-MALS run not told in the main text. (In gel filtration, larger molecules generally elute earlier.)

In turn, “Anthopleura YFP (AnthoYFP) from Neon Anthopleura sola (natural protein)” registered a stoichiometry N of 4.
